Key:
[1] = biological target: recombinant human GM-CSF (rhGM-CSF) (human) (UniProt P04141)
[2] = biological target: recombinant human GM-CSF (rhGM-CSF) (human) (UniProt P04141); assay: SPR (BIAcore), rhGM-CSF immobilised, analyte 116 nM
[3] = biological target: recombinant human GM-CSF (rhGM-CSF) (human) (UniProt P04141); assay: SPR (BIAcore), rhGM-CSF immobilised, analyte 347 nM
[4] = biological target: recombinant human GM-CSF (rhGM-CSF) (human) (UniProt P04141); assay: SPR (BIAcore), rhGM-CSF immobilised, analyte 1040 nM
[5] = biological target: recombinant human GM-CSF (rhGM-CSF) (human) (UniProt P04141); assay: SPR (BIAcore), rhGM-CSF immobilised, analyte 12.8 nM
[6] = biological target: recombinant human GM-CSF (rhGM-CSF) (human) (UniProt P04141); assay: SPR (BIAcore), rhGM-CSF immobilised, analyte 3120 nM
[7] = biological target: recombinant human GM-CSF (rhGM-CSF) (human) (UniProt P04141); assay: SPR (BIAcore), rhGM-CSF immobilised, analyte 38.5 nM
[8] = biological target: recombinant human GM-CSF (rhGM-CSF) (human) (UniProt P04141); assay: SPR (BIAcore), kinetic analysis, rhGM-CSF immobilised

B1: half-human SCA B32oN-45 (scFv)
scFv: ELQLVEQSGAALVKPGDSVKMSCKASGYPFTDYIVHWVKQSHGKSLDWIGYINPYSGDTKFNEKFKSKATLTVDKSSSTAYMEFSRLTSEDSAIYYCARSGLIAVYFDYWGQGTTVTVSSGGGGSGGGGSGGGGSELVMTQSPSSVSASVGDRVTIACRASQNIRNILNWYQQRPGKAPQLLIYAASNLQSGVPSRFSGSGSGTDFTLTINSLQPEDFATYYCQQSYSMPRTFGGGTKVEIKTGDYKDDDDK
inhibition of rhGM-CSF dependent proliferation of TF-1 cells [1]: 6 nM
Ka [2]: 1.66e+08 M⁻¹
Kd [2]: 0.00601 µM
koff [2]: 0.00464 s⁻¹
kon [2]: 772000 M⁻¹ s⁻¹
Ka [3]: 9.22e+07 M⁻¹
Kd [3]: 0.0108 µM
koff [3]: 0.00477 s⁻¹
kon [3]: 440000 M⁻¹ s⁻¹
Ka [4]: 1.89e+07 M⁻¹
Kd [4]: 0.0528 µM
koff [4]: 0.0046 s⁻¹
kon [4]: 87100 M⁻¹ s⁻¹
Ka [5]: 3.25e+08 M⁻¹
Kd [5]: 0.00307 µM
koff [5]: 0.00384 s⁻¹
kon [5]: 1.25e+06 M⁻¹ s⁻¹
Ka [6]: 1.06e+07 M⁻¹
Kd [6]: 0.0946 µM
koff [6]: 0.00514 s⁻¹
kon [6]: 54300 M⁻¹ s⁻¹
Ka [7]: 2.2e+08 M⁻¹
Kd [7]: 0.00455 µM
koff [7]: 0.00444 s⁻¹
kon [7]: 975000 M⁻¹ s⁻¹
Kd [8]: 0.05 µM

Reference: US9279017B2
